Measurements as given in article PMC6224480, “Insights into Kinesin-1 Activation from the Crystal Structure of KLC2 Bound to JIP3” (Structure(London, England:1993), 2018).

What was measured:
KLC2^TPR-myc = biological target: T1, KLC2^TPR-myc (Mus musculus, UniProt O88448); assay: Fluorescence anisotropy-based binding competition against FITC-LFP motif peptide; parameters: species or system murine; settings: FITC-LFP peptide 300 nM, KLC2^TPR-myc 21 μM, Trp-JIP3^LZ two independent experiments, CSTN-WD1 one experiment
T1 construct: comprised murine KLC2 residues 191-480; His6-SUMO (N, cleaved yes); made in house; host or cells: E. coli BL21(DE3) Rosetta
Description: Kinesin-1 activation by JIP3 requires JIP3^LZ binding to KLC^TPR ([Watt et al., 2015]). How does JIP3^LZ binding to the KLC^TPR relieve KLC regulation of the kinesin-1 molecule? Tryptophan-acidic cargoes activate kinesin-1 by releasing the KLC LFP motif from the KLC^TPR ([Yip et al., 2016]). […] We therefore wondered whether JIP3^LZ binding to the KLC2^TPR allosterically regulates interactions between KLC2^TPR and the LFP motif. We investigated this using an in vitro, fluorescence anisotropy-based binding competition assay with purified proteins and peptides ([Yip et al., 2016]). […] Thus, JIP3 activates kinesin-1 by a different mechanism to tryptophan-acidic cargoes.
The binding affinity between the FITC-labelled LFP-motif peptide and the KLC2^TPR-myc was measured essentially as described previously ([Yip et al., 2016]). FITC-labelled LFP motif peptide (300 nM) was incubated with 2-fold dilutions of KLC2^TPR-myc in assay buffer (0.1 M NaCl, 25 mM HEPES, 5 mM MgCl2, 1 mM TCEP, final pH 7.5) in triplicate in 384-well plates, for 1 hour at room temperature. Fluorescence measurements were recorded on a TecanSpark plate reader at excitation and emission wavelengths of 488 nm and 535 nm respectively. Fluorescence anisotropy values were calculated at each KLC2^TPR-myc concentration and the data were fitted with a fixed-slope dose response curve in Prism (GraphPad). […]

CD spectroscopy = assay type: physicochemical; settings: 20°C, 20 mM potassium phosphate pH 7.5, 0.5 mM DTT
Procedure: All CD spectra were recorded on a Chirascan CD spectrometer (Applied Photophysics) in quartz cuvettes with a 0.1 cm path length. Data were recorded at 20°C between 260 - 180 nm in 1 nm increments and a 2 nm bandwidth over an average of two scans. The KLC2^TPR-myc and Trp-JIP3^LZ proteins were dialysed extensively into 20 mM potassium phosphate pH 7.5, 0.5 mM DTT. Spectra were collected from KLC2^TPR-myc samples at concentrations of 0.29, 0.14 and 0.086 mg/ml. Trp-JIP3^LZ spectra were collected at 0.15, 0.074 and 0.044 mg/ml. One spectrum was recorded for each sample at each concentration and background-corrected by subtraction of a buffer-only spectrum. Corrected spectra were converted to units of mean residue ellipticity and deconvolved using the Dichroweb server ([Whitmore and Wallace, 2008]). KLC2^TPR-myc and Trp-JIP3^LZ spectra were analysed using the SELCON3 and CONTIN algorithms, respectively, using reference dataset set 4 ([Sreerama et al., 1999], [van Stokkum et al., 1990]). For each protein, the mean percentage of each secondary structure type, and the corresponding standard deviation, was calculated from the values obtained from the three concentrations. The secondary structure content for KLC2^TPR-myc and Trp-JIP3^LZ were calculated using the KLC2^TPR:JIP3^LZ crystal structure using the STRIDE server (http://webclu.bio.wzw.tum.de/cgi-bin/stride/stridecgi.py) ([Frishman and Argos, 1995]).

[1] = tested on: KLC2^TPR-myc Arg^312Glu (R312E); assay: ITC of Trp-JIP3^LZ into R312E KLC2^TPR-myc; assay type: binding, murine
Description: The KLC2^TPR construct used in this work comprised murine KLC2 residues 191-480, which is similar to those used in previous studies ([Nguyen et al., 2017], [Zhu et al., 2012]) but with a slightly longer N-terminal region to include residues 191-194, which are very highly conserved in Bilaterian KLCs. To construct the pMW-His6-SUMO-KLC2^TPR vector, the sequence encoding KLC2^TPR (residues 191-480) was amplified by PCR from a murine template ([Dodding et al., 2011]) and cloned into the NotI/EcoRI sites of pMW his-SUMO. […]
The Trp-JIP3^LZ protein used for CD and ITC experiments was prepared as described above for the JIP3^LZ, with the following modifications. […] The Trp-JIP3^LZ and KLC2^TPR-myc samples used in the fluorescence anisotropy-based binding competition assays were prepared as for those used in the CD and ITC studies, but the final size-exclusion step was performed in 100 mM NaCl, 25 mM HEPES, 5mM MgCl2, 1 mM TCEP (final pH 7.5).
(§1) To study binding of the Trp-JIP3^LZ and FITC-CSTN-WD2 peptide to wild-type and mutant KLC2^TPR-myc, the recombinant proteins were prepared by size exclusion chromatography in 0.1 M NaCl, 25 mM HEPES, 1 mM TCEP, final pH 7.5. […] The peptide concentration was determined by measuring the absorbance at 483 nm and using a molar extinction coefficient of 68,000 M^-1cm^-1. […] The resulting isotherms were analysed in SEDPHAT. […]

[2] = tested on: wild-type and mutant KLC2^TPR-myc; assay: ITC with wild-type and/or TPR1-mutant KLC2^TPR-myc (collective statements); assay type: binding, murine; settings: all three mutations in TPR1 of KLC2^TPR-myc; ITC
Procedure: The Trp-JIP3^LZ protein used for CD and ITC experiments was prepared as described above for the JIP3^LZ, with the following modifications. Following 3C cleavage, contaminating GST3C was removed by incubation of the eluate with fresh, pre-equilibrated glutathione sepharose 4B resin for 2 hours at room temperature. The Trp-JIP3^LZ was then further purified by size exclusion chromatography using a Superdex 75 16/600 column equilibrated in 100 mM NaCl, 25 mM HEPES, 1 mM TCEP (final pH 7.5). Wild-type/mutant KLC2^TPR-myc samples used for CD and ITC experiments were prepared as described above the KLC2^TPR used in crystallographic studies. The Trp-JIP3^LZ and KLC2^TPR-myc samples used in the fluorescence anisotropy-based binding competition assays were prepared as for those used in the CD and ITC studies, but the final size-exclusion step was performed in 100 mM NaCl, 25 mM HEPES, 5mM MgCl2, 1 mM TCEP (final pH 7.5).
as §1

T1 sequence (O88448 191-480): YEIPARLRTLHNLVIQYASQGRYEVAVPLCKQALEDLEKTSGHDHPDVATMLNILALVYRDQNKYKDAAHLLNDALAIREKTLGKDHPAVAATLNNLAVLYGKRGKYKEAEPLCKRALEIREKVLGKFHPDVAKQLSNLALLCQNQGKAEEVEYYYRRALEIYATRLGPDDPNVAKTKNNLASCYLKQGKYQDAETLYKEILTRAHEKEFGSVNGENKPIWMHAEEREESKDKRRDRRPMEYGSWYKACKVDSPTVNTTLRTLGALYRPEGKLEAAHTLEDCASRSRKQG

B1: Trp-JIP3^LZ: JIP3^LZ construct N-terminally fused to a tryptophan residue (protein)
chain: WMGKEVGNLLLENSQLLETKNALNVVKNDLIAKVDQLSGEQEVLKGELEAAKQAKVKLENRIKELEEELKRV
modifications: left off: GST, N-terminal, cleaved
notes: JIP3^LZ construct N-terminally fused to a tryptophan residue
effect on binding of KLC2^TPR-myc to FITC-labeled LFP motif peptide (KLC2^TPR-myc): no effect
mean α-helical content (CD spectroscopy; CONTIN deconvolution, mean and SD from three concentrations (0.15, 0.074, 0.044 mg/ml)): 59% ± 3%
ratio of ellipticities at 222 and 208 nm (CD spectroscopy; n = 3): 0.88 ± 0.01
binding to Arg^312Glu mutant [1]: retained the ability to bind
effect of the three TPR1 mutations on binding [2]: completely abrogated binding
